Results reported in US20110293526A1, “COMPOSITIONS AND METHODS TO MODULATE HAIR GROWTH” (University of Southern California, priority 2008, published 2011).

Legend:
[1] = DMSO; cited from earlier work
[2] = in published reports; cited from earlier work
competent telogen skin = assay: Protein administration experiment: human BMP4-soaked beads implanted into competent telogen skin ahead of an anagen-spreading wave; assay type: in vivo, mice; conditions: for propagation of the anagen-spreading (hair propagation) wave around the beads: beads soaked in human BMP4 1 mg per ml, implanted in competent telogen skin of adult mice, protein replenished every 24 h, twelve days later, versus control BSA/albumin beads
Experimental: Intracutaneous administration of exogenous protein was performed as follows. Affinity chromatography Affi-gel blue gel beads were obtained from Biorad. Beads were washed in 1×PBS, followed by drying. The beads were then re-suspended in 5 μl protein solution, either control (BSA 1 mg ml^−1) or experimental (human BMP4 1 mg per ml), at 4° C. for 30 min. Recombinant human BMP4 protein was obtained from R&D Systems. Reconstitution of the protein was performed in 4 mM HCl in 0.2% BSA as per the manufacturer's guidelines. Approximately 100 beads were introduced to the competent telogen skin of adult mice by means of a single puncture wound to the skin made by a 30 g syringe (insulin syringe). To replenish proteins, subsequent doses of 1.5 μl protein solution were microinjected to the site of the bead implantation every 24 h by means of a glass micro-needle until the tissue was harvested. After the anagen-spreading wave was noted to pass beyond the bead implantation sites (1 week in the case of FIGS. 2g, h), the skin was collected and inverted for photography. This allows the study of the anagen-wave-spreading dynamics around the control and human BMP4 beads.
Finally, it was tested whether a direct local delivery of BMP protein can convert competent telogen status to refractory in normal mice. Human-BMP4-soaked beads were implanted into competent telogen skin ahead of an anagen-spreading wave (see Methods in Botchkarev et al. (2001) FASEB J. 15:2205-14). […] Thus, the level of BMP activity can indeed explain the functional status (refractory versus competent) of a skin region.

For `c1cc(-c2cnn3cc(-c4ccc(OCCN5CCCCC5)cc4)cnc23)ccn1` [Dorsomorphin], the solubility [1] is given as “soluble in DMSO” and the toxicity [2] is given as “low toxicity”.

B1: human BMP4: Recombinant human BMP4 protein obtained from R&D Systems (protein, UniProt P12644 293-408, looked up)
Bone morphogenetic protein 4: SPKHHSQRARKKNKNCRRHSLYVDFSDVGWNDWIVAPPGYQAFYCHGDCPFPLADHLNSTNHAIVQTLVNSVNSSIPKACCVPTELSAISMLYLDEYDKVVLKNYQEMVVEGCGCR
For B1, the “propagation of the anagen-spreading (hair propagation) wave around the beads” value (“propagation of the anagen-spreading” for short) (competent telogen skin) was “prevented the propagation of the wave around the beads”, the “propagation of the anagen-spreading” value (competent telogen skin; listed as Human-BMP4) was “caused hair propagation wave (solid arrow) to go around them, creating a new telogen domain” and the “propagation of the anagen-spreading” value (competent telogen skin; listed as hBMP4) was “caused hair propagation wave (solid arrowed curve) to go around them, creating a new telogen domain”. For the same molecule, the “status of treated skin and hair regeneration after intracutaneous delivery” value (competent telogen skin; delivered intracutaneously via single glass microneedle during competent telogen phase) was “rendered treated skin refractory and prevented hair regeneration”.
